Measurements: PMC13583000 (Nature Communications, 2026)

Molecular target: the molecule itself
Test: SEC

B1: Corynebacterium glutamicum citrate synthase with a C-terminal Strep tag (CgCS-Strep) (enzyme)
chain: MFERDIVATDNNKAVLHYPGGEFEMDIIEASEGNNGVVLGKMLSETGLITFDPGYVSTGSTESKITYIDGDAGILRYRGYDIADLAENATFNEVSYLLINGELPTPDELHKFNDEIRHHTLLDEDFKSQFNVFPRDAHPMATLASSVNILSTYYQDQLNPLDEAQLDKATVRLMAKVPMLAAYAHRARKGAPYMYPDNSLNARENFLRMMFGYPTEPYEIDPIMVKALDKLLILHADHEQNCSTSTVRMIGSAQANMFVSIAGGINALSGPLHGGANQAVLEMLEDIKSNHGGDATEFMNKVKNKEDGVRLMGFGHRVYKNYDPRAAIVKETAHEILEHLGGDDLLDLAIKLEEIALADDYFISRKLYPNVDFYTGLIYRAMGFPTDFFTVLFAIGRLPGWIAHYREQLGAAGNKINRPRQVYTGNESRKLVPREER
- stoichiometry N: 2
